Measured values reported in US20090018316A1 (IMMUNEX, published 2009).

Assays:
[1] = molecular target: T1, native human IL-15 receptor on human cells (human, UniProt Q13261 31-267); test: radiolabeled IL-15 binding to vascular endothelial cells of venous origin
T1 construct: whole, on cells; Endogenous receptor; its subunits on these cells were not defined; Clone W5 was later cloned from W126-VA4 cells, and clones A212 and A133 from A172 cells
Source text: (§1) Various human cell lines and tissues were screened for the ability to bind radiolabeled IL-15 substantially as described in Example 1. High affinity binding was observed on activated peripheral blood mononuclear cells, activated monocytes and some EBV-transformed cell lines.

[2] = molecular target: T2, murine IL-15R (full length, cDNA clone D1-4-D5) (murine, UniProt Q60819 33-263); test: equilibrium binding of 125I-simian IL-15 to 32Dmβ-5 cells (sites ascribed to endogenous IL-15Rα)
T2 construct: Cell-surface receptor: recombinant on COS-7 and 32D transfectants, native or endogenous on D10, 32D-01, 32Dmβ-5 and CTLL.2 cells; 32D lines also carry IL-2Rα and γc, and some carry IL-2Rβ; the cell line is named under assay; also called murine IL-15Rα; IL-15Rα
T2 sequence: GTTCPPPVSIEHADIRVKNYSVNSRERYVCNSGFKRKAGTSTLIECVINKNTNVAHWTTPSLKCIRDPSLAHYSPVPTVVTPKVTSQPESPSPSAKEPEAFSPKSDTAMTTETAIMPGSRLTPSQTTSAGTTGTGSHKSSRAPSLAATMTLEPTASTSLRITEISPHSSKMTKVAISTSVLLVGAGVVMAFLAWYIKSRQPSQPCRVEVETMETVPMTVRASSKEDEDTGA

[3] = molecular target: T1, native human IL-15 receptor on human …; test: radiolabeled IL-15 binding to the glioblastoma cell line A-172
Source text: as §1

[4] = molecular target: T2, murine IL-15R (full length, cDNA clone …); test: equilibrium binding of 125I-simian IL-15 to 32Dm15Rα-102 cells (transfected with IL-15Rα)
[5] = molecular target: T3, complexes of murine β and γc (IL-2Rβ and common γ chain) in the absence of the IL-15Rα chain (murine, UniProt P16297 27-539; P34902 23-369); test: equilibrium binding of 125I-simian IL-15 to 32Dmβ-5 cells: no IL-15 binding sites beyond those of the 32D-01 parent line
T3 construct: whole, on cells; On 32Dmβ-5 cells, which also express IL-2Rα and about 40 sites per cell of endogenous IL-15Rα; also called murine IL-2Rβ/γc; 32Dmβ-5 cells
T3 sequence (looked up) 1: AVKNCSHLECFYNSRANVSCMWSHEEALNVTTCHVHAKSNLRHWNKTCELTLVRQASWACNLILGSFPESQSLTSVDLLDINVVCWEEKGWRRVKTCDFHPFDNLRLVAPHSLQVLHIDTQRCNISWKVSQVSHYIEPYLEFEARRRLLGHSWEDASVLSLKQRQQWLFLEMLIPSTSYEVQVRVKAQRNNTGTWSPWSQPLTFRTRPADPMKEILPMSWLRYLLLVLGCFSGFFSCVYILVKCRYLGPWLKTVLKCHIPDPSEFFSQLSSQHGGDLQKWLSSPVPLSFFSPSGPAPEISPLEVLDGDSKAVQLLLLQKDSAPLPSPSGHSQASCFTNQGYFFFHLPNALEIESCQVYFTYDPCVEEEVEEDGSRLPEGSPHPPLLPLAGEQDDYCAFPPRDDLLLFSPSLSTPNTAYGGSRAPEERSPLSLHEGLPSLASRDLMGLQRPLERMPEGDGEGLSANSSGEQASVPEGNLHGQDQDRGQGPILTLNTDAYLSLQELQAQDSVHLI
T3 sequence (looked up) 2: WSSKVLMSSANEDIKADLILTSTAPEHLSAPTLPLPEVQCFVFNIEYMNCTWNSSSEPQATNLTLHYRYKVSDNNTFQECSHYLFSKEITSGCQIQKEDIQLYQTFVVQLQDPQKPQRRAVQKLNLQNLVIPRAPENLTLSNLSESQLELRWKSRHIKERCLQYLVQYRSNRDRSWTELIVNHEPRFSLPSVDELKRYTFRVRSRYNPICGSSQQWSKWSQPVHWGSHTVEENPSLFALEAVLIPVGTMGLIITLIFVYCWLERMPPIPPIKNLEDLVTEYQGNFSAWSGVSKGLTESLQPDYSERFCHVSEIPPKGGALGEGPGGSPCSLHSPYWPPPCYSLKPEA

[6] = molecular target: T1, native human IL-15 receptor on human …; test: radiolabeled IL-15 binding to vascular endothelial cells of arterial origin
Source text: as §1

[7] = molecular target: T2, murine IL-15R (full length, cDNA clone …); test: equilibrium binding of 125I-simian IL-15 to D10 cells (native IL-15R)
[8] = molecular target: T1, native human IL-15 receptor on human …; test: radiolabeled IL-15 binding to the human fibroblast line W126-VA4
Source text: as §1

[9] = molecular target: T2, murine IL-15R (full length, cDNA clone …); test: equilibrium binding of 125I-simian IL-15 to 32Dmβm15Rα-3 cells (recombinant IL-15Rα and IL-2Rβ, γc constitutive)
[10] = molecular target: T2, murine IL-15R (full length, cDNA clone …); test: equilibrium binding of 125I-simian IL-15 to parental 32D-01 cells (endogenous IL-15Rα)
[11] = molecular target: T2, murine IL-15R (full length, cDNA clone …); test: 125I-IL-15 binding to monolayers of COS cells transfected with clone D1-4-D5
Experimental: D. Recombinant IL-15R Binding. Plasmid DNA from IL-15 receptor expression plasmid was used to transfect a sub-confluent layer of monkey COS-7 cells using DEAE-dextran followed by chloroquine treatment, as described by Luthman et al., Nucl Acids Res. 11:1295 (1983) and McCutchan et al., J. Natl. Cancer Inst. 41:351 (1968). The cells were then grown in culture for three days to permit transient expression of the inserted sequences. After three days, the cell monolayers were assayed for ¹²⁵I-IL-15 binding essentially as described by Park, et al., J. Exp. Med. 166:476 (1987). Non-specific binding of ¹²⁵I-IL-15 was measured in the presence of 200-fold or greater excess of unlabeled IL-15.

T1 sequence (Q13261 31-267): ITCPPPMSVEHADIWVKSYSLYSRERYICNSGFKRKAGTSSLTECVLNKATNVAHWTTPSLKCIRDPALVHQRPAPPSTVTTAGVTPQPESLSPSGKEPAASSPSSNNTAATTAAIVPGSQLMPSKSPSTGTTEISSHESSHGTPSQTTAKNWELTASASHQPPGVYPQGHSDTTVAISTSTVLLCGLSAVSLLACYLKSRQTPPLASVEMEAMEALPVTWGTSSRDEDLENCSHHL

Kd [1]: 0.033 nM
Ka [2]: 1.9e+11 M⁻¹
Kd [3]: 0.05 to 0.138 nM
Ka [4]: 1.5e+11 M⁻¹
binding result [5]: no binding
Kd [6]: 0.163 nM
Ka [7]: 1.3e+11 M⁻¹
Kd [8]: 0.027 nM
Ka [9]: 2.2e+11 M⁻¹
Ka [10]: 1.4e+11 M⁻¹
Kd [11]: 1 to 2.2 nM
B1: Recombinant flag simian IL-15 expressed in yeast (ligand)
chain: DYKDDDDKNWVNVISDLKKIEDLIQSMHIDATLYTESDVHPSCKVTAMKCFLLELQVISHESGDTDIHDTVENLIILANNILSSNGNITESGCKECEELEEKNIKEFLQSFVHIVQMFINTS
modifications: radioiodinated (125I, enzymobead iodination reagent); labelled residues not stated
notes: Flag-tagged simian IL-15 made in yeast, purified and radioiodinated; also called 125I-IL-15; 125I-simian IL-15
